Test results reported in the DeepSol protein solubility set.

Test: soluble on expression in E. coli; label from the status in PepcDB or PDB records

Soluble on expression in E. coli, not soluble:
MKSYMTQRLDEYRDGNEDKGRLLVSCPDQPGIVSAVSAFLFEHGANIIESNQYTTDPEGGRFFLRIEFDCAGIREKKSSLQAAFASVAEKFDMTWSLTLASELKRVAIFVSKNLHCLHELIWEWQTGNLMAEIAVVISNHEEARELVERLNIPFHYMKANKDIRAEVEKKQLELLEQYDVDVIVLARYMQILTPDFVSAHPNRIINIHHSFLPAFIGANPYKRAYERGVKLIGATSHYVTNDLDEGPIIEQDIKRVDHRDNAETLKNIGRTIERSVLARAVKWHLEDRVIVHENK
MGSDKIHHHHHHMSSEIVIRVKNLSKCFNIYDQPRDRLKQAILPRLQRLFGRPQKSYHKEFWALRNADFEIRRGETVGIIGRNGSGKSTLLQLLCGTLTPTHGDIEVTGKVAALLELGAGFNPEFTGRENVFLSGSFYGLTREQVQERFDRIAAFADIGDHIEQPVKTYSSGMFVRLAFAVIAHVDADILVIDEALSVGDAVFTQKCMRFIRSFQEKGTLLFVSHDMQSVVNLCRNAIWLNAGETRMKGTSKNVSEAYLKYTLQEVYGEEAILLSAAPKESTLDAPMFEEAGPPMLDYEAVASVSSNLFDAKGWKTGDAEIEAVQLESLTGENDGILRGGELVRMVVRARAHQPLERPVIGFMVRDRLGQNLFGENTLSLTALDQARVAAGQMFEGEFVFRLPMLPDGQYSVTASVADGDLHNNVQHHLLHDALIINVASSKVRWGLVGVPFERVTLNCI
MGSDKIHHHHHHMKMATTHQSSTKQDILEYLHKHEKATALELAEVLDVTPQAIRRHLKDLETEELVLYSTSVQAAGMGRPQHLYELSRQGRDRLHRTMSDRFGDASGNFAVSLLDTLAETVGHDQFKSILEKQWQRKAKEYRDRVGNGSLRERVANLVELRKAEGFMAEYHAVDVNDTFESDRFILMEHNCAISNVAESFPSICGHELEMFAAVLPDCTVERTHWIIDGEHRCGYLVQVRH
MGSDKIHHHHHHMERMSIKYFVNNNSLGPDRNISSVGFEEIPPNTSYPTLNHSAGYYFNPDKGRILTEYQLIYITEGEGVLETRSGGVFTIKRGMIFVLFPGEWHTYYPNYQTGWSHYWIGFCGPEVDSWMTNEYCSKESPVFKVGINDEIVSLFRKAIDVANEEPTLYQRVLSGLVTYLVALMCSIDKNLQVENDDFSSKIDYACVLMKELIDQPVSMQEIAKKAGMGYSLFRKLFKEQKNYAPVQYFQNLKIQKAIELLTTTTIPVKEIAYRLDFESPAYFSARFKKQTGKSPIEYREEFRIK
MAAKIEDMETRIEALMDVMRVPPGKKINLKKDYDPGFTGKWMTKAEAKETLARGIQMLAEMQDKLWAQNQYAVLMNLQALDAAGKDGTIKHVMSGVNPQGVDVHSFKGPSSEEMDHDYLWRNFKALPSRGRIGIFNRSYYEEVLVVRVHPEFLASQQLPPKLKDKRIWRRRFEEINNFEKYLVDNGIVVIKFFLYVSKEAQKERFLRRTQLPEKNWKFSAADIKERAHWDDYIAAYEDMFNHTSTEWAPWYIVPADHKWFTRLAVAAVLYYTMEKLNLAYPTVSEEQKQALIAAKEELEREDSGPKDKAVVKAEEEEDADPQDPASNGEVPKDESKKESKKKGSKNR
MGSDKIHHHHHHMILMNNPGDKEVLRLLKQRMESVSQVEETVKEIIRRVKEEGDRALEEFLKRFEKHPVGIENLRVTEKEISEAQVEEEFVETIKIVIEDLKEFHRRQEERSFFFTTKGGSFLGEMVVPLESVGIYVPGGKVPYFSTLLMCAVPAIVAGVERIAVTTPPNENGGISPYILKTCEILGLKEIYRMGGAHAVAALTYGTETVKPVDKIVGPGGVFVTLAKKHVYGDVGIDSIAGPSEIAIVTDGSADLDLIAADFLSQAEHDENAMSVVITTSKEVFEKLPQVIERHLEALPEERRKTARISTENFGTIILTDSLKRAFEISNLIAPEHLEVLVENPFEPLGHIKNAGSVFLGKYTCESVGDYGAGPNHVLPTFRSARFSSGLRVSDFTKKIFITHLSEEDFRRKSELYSKMARWEGFEAHARAIDVRREKL
MNILYTVENSIYVNITNTCPCSCVFCIRNEKDEVANSGSLWLEHEPSVDEVKEAFNKYNLDDYDEIVFCGYGEPLMRINELIDVAKFIKEKSSIKIRINTNGLSDLIHNKKTAILLKDVIDAVSISLNAPNKEAYNRVTQPKFGEKSFDYMLDFAKDCKKYIKEVAFSVVDEISPEEIEESKQLAKKLDIPLRVRHKN

Soluble on expression in E. coli, soluble:
MSLSITRKDFDHINLEYSGLEKVNKAVAAGNYDDAAKALLAYYREKSKAREPDFSNAEKPADIRQPIDKVTREMADKALVHQFQPHKGYGYFDYGKDINWQMWPVKDNEVRWQLHRVKWWQAMALVYHATGDEKYAREWVYQYSDWARKNPLGLSQDNDKFVWRPLEVSDRVQSLPPTFSLFVNSPAFTPAFLMEFLNSYHQQADYLSTHYAEQGNHRLFEAQRNLFAGVSFPEFKDSPRWRQTGISVLNTEIKKQVYADGMQFELSPIYHVAAIDIFLKAYGSAKRVNLEKEFPQSYVQTVENMIMALISISLPDYNTPMFGDSWITDKNFRMAQFASWARVFPANQAIKYFATDGKQGKAPNFLSKALSNAGFYTFRSGWDKNATVMVLKASPPGEFHAQPDNGTFELFIKGRNFTPDAGVFVYSGDEAIMKLRNWYRQTRIHSTLTLDNQNMVITKARQNKWETGNNLDVLTYTNPSYPNLDHQRSVLFINKKYFLVIDRAIGEATGNLGVHWQLKEDSNPVFDKTKNRVYTTYRDGNNLMIQSLNADRTSLNEEEGKVSYVYNKELKRPAFVFEKPKKNAGTQNFVSIVYPYDGQKAPEISIRENKGNDFEKGKLNLTLTINGKQQLVLVPEGHHHHHH
MGSSHHHHHHSSGRENLYFQGHMIPEHLSIYTAYNANIAAIVKLNQETIQNLINAFDPDEVKRRIEEYPREINEPIDFVARLVHTLKLGKPAAVPLVNEKMNEWFDKTFRYEEERLGGQAGIIANTLAGLKIRKVIAYTPFLPKRLAELFKKGVLYPVVENGELQFKPIQEAYREGDPLKINRIFEFRKGLKFKLGDETIEIPNSGRFIVSARFESISRIETREDIKPFLGEIGKEVDGAIFSGYQGLRTKYSDGKDANYYLRRAKEDIIEFKEKDVKIHVEFASVQDRKLRKKIITNILPFVDSVGIDEAEIAQILSVLGYRELADRIFTYNRLEDSILGGMIILDELNFEILQVHTTYYLMYITHRDNPLSEEELAKSLEFGTTLAAARASLGDIRGPDDYKVGLKVPFNERSEYVKLRFEEAKSRLRMREYKVVVIPTRLVQNPVLTVGLGDTISAGAFLTYLEFLKRHGS
MLLEEVRAGDRLSGAAARGDVQEVRRLLHRELVHPDALNRFGKTALQVMMFGSTAIALELLKQGASPNVQDTSGTSPVHDAARTGFLDTLKVLVEHGADVNVPDGTGALPIHLAVQEGHTAVVSFLAAESDLHRRDARGLTPLELALQRGAQDLVDILQGHMVAPL
GPGSMKVSSFIVQLRPGFFRLMIHAKPGARSTALAAQPQALDEALEVRLAAPPVDGKANTELVEFMQTLLEQQLATLRITQKQHLRKSGCEDGEDEVYTYEHYAKKKKSKNNKRMNEDSKSGEAKVEYPDDKVRVSLVSGLTSRNKVLEVTFPGTEEDLLAVLKSADFS
MSRGVKRVTAITNREREAVLRIEFPNVDVTDIDFDLFQARESTDKPLDVAAAIAYRLLLGSGLPQKFGCSDEVLLNFILQCRKKYRNVPYHNFYHVVDVCQTIYTFLYRGNVYEKLTELECFVLLITALVHDLDHMGLNNSFYLKTESPLGILSSASGNKSVLEVHHCNLAVEILSDPESDVFGGLEGAERTLAFRSMIDCVLATDMARHSEFLEKYLEIMKTSYNVDDSDHRQMTMDVLMKAGDISNVTKPFDVSRQWAMAVTEEFYRQGDMEKERGVEVLPMFDRSKNMELAKGQIGFIDFVAAPFFQKIVDACLQGMQWTVDRTKSNRAQWERVLEARSTGAS
MVRVKVNDRIVEVPPGTSVMDAVFHAGYDVPLFCSEKHLSPIGACRMCLVRIGLPKKGPDGKPLLNEKGEPEIQWQPKLAASCVTAVADGMVVDTLSDVVREAQAGMVEFTLLNHPLDCPTCDKGGACELQDRTVEYGLYEKYYQKGPLELPVYTRFEFTRRHVDKHHPLSPFVILDRERCIHCKRCVRYFEEVPGDEVLDFIERGVHTFIGTMDFGLPSGFSGNITDICPVGALLDLTARFRARNWEMEETPTTCALCPVGCGITADTRSGELLRIRAREVPEVNEIWICDAGRFGHEWADQNRLKTPLVRKEGRLVEATWEEAFLALKEGLKEARGEEVGLYLAHDATLEEGLLASELAKALKTPHLDFQGRTAAPASLFPPASLEDLLQADFALVLGDPTEEAPILHLRLSEFVRDLKPPHRYNHGTPFADLQIKERMPRRTDKMALFAPYRAPLMKWAAIHEVHRPGEEREILLALLGDKEGSEMVAKAKEAWEKAKNPVLILGAGVLQDTVAAERARLLAERKGAKVLAMTPAANARGLEAMGVLPGAKGASWDEPGALYAYYGFVPPEEALKGKRFVVMHLSHLHPLAERYAHVVLPAPTFYEKRGHLVNLEGRVLPLSPAPIENGEAEGALQVLALLAEALGVRPPFRLHLEAQKALKARKVPEAMGRLSFRLKELRPKERKGAFYLRPTMWKAHQAVGKAQEAARAELWAHPETARAEALPEGAQVAVETPFGRVEARVVHREDVPKGHLYLSALGPAAGLRVEGRVLVPAGGEA
MSLRILLVDDVQLDRMQLAIRLKQLGHIVKAVGSGIEALNTYESFDPELVLLDISMPEMNGFEVSLHVRETFPDWIPIIFLSSHEEPEMIAKAIDAGGDDYLIKPVDKLVLNSKLIAMQRIAHMRRELKQATAQLEQVNQLLTQQANEDGLTKLFNRRYIDQKLDSMVAWHGRHHMPMAMILLDVDFFKPFNDNYGHIEGDRCLQAIANQLKATFCRSGEYVGRYGGEEFVVLLSSTDAQTAEREAERIQEAMYFLDYQHEFSSVANRVTVSQGVFVFQPTGKENQADLYATADRALYTSKSLGRNTYTMVNASEGHHHHHH
MKFVDEASILVVAGDGGNGCVSFRREKYIPKGGPDGGDGGDGGDVWMEADENLNTLIDYRFEKSFRAERGQNGASRDCTGKRGKDVTIKVPVGTRVIDQGTGETMGDMTKHGQRLLVAKGGWHGLGNTRFKSSVNRTPRQKTNGTPGDKRELLLELMLLADVGMLGMPNAGKSTFIRAVSAAKPKVADYPFTTLVPSLGVVRMDNEKSFVVADIPGLIEGAAEGAGLGIRFLKHLERCRVLLHLIDIDPIDGTDPVENARIIISELEKYSQDLATKPRWLVFNKIDLLDKVEAEEKAKAIAEALGWEDKYYLISAASGLGVKDLCWDVMTFIIENPVVQAEEAKQPEKVEFMWDDYHRQQLEEIAEEDDEDWDDDWDEDDEEGVEFIYKR
